Experimental data: patent US20210032365A1 (Chugai, published 2021)

Key:
human C1s [1] = molecular target: T1, human C1s (human, UniProt P09871 16-688); experiment: SPR (Biacore T200, 37C), Ab captured on protein A/G; pH 5.8, 3 uM Ca
T1 construct: Analyte in the Biacore assays; also called hC1s; serum-derived human C1s (CompTech)
T1 sequence: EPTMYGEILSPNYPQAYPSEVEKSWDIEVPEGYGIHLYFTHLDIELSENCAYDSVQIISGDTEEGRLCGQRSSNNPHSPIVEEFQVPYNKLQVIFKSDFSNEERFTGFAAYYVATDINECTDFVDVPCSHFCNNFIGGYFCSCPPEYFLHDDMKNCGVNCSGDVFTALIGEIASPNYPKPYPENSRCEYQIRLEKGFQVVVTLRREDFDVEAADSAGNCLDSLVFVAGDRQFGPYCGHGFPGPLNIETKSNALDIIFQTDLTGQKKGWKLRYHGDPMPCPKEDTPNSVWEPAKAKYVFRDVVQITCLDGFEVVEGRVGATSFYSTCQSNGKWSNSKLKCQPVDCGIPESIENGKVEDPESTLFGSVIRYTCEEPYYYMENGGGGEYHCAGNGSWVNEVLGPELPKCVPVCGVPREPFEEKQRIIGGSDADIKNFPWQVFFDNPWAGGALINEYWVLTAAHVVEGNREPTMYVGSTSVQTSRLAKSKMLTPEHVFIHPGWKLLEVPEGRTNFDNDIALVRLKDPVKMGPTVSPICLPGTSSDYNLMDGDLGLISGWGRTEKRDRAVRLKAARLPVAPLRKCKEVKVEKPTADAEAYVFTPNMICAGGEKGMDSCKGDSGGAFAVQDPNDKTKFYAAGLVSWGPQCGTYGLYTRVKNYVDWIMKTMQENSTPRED
Protocol: (§1) All variants were transiently expressed and purified by the method described above. The binding affinity of each histidine-substituted variant at pH 7.4 and pH 5.8 was determined at 37 degrees C. using Biacore T200 instrument (GE Healthcare). Recombinant Protein A/G (Pierce) was immobilized onto all flow cells of a CM4 sensor chip using an amine coupling kit (GE Healthcare). Antibodies and analytes were prepared in 7(+) buffer (20 mM ACES, 150 mM NaCl, 1.2 mM CaCl2, 0.05% Tween 20, 0.005% NaN3, pH 7.4), 5(+) buffer (20 mM ACES, 150 mM NaCl, 1.2 mM CaCl2, 0.05% Tween 20, 0.005% NaN3, pH 5.8), or 5(−) buffer (20 mM ACES, 150 mM NaCl, 3 micro M CaCl2, 0.05% Tween 20, 0.005% NaN3, pH 5.8). Each antibody was captured onto the sensor surface by protein A/G. Antibody capture levels were aimed at 200 resonance unit (RU). Serum-derived human C1s (CompTech) or recombinant C1s prepared in EXAMPLE 1 was injected at 50 nM, followed by dissociation. The sensor surface was regenerated in each cycle with 10 mM Glycine-HCl, pH 1.5. […] The ratio of KD 5.8+ to KD 7.4+(“KD 5+/7+”) and that of KD 5.8− to KD 7.4+(“KD 5−/7+”) were calculated. When the KD 5+/7+ or KD 5−/7+ of a variant is larger than that of the parent antibody IPN009VH2-SG4GK/IPN009VK3-SK1, that variant is considered to be “pH”- or “pH and Ca”-dependent, respectively. When binding response in 5(+) buffer and/or in 5(−) buffer of a variant is much lower than that of IPN09VH2/IPN009VK3, that variant is also considered as “pH”- and/or “pH and Ca”-dependent. Therefore, such mutations are effective to generate “pH”- and/or “pH and Ca”-dependent antibody. To further enhance “pH” and/or “pH and Ca” dependency, a combination of histidine mutations was conducted. Antibodies with combinations of histidine mutations were evaluated using Biacore by the method described above.

human C1s [2] = molecular target: T1, human C1s; experiment: SPR (Biacore T200, 37C), Ab captured on protein A/G; pH 7.4, 1.2 mM Ca; pH 7.4, 1.2 mM Ca
Protocol: All variants were transiently expressed and purified by the method described above. The binding affinity of each histidine-substituted variant at pH 7.4 and pH 5.8 was determined at 37 degrees C. using Biacore T200 instrument (GE Healthcare). Recombinant Protein A/G (Pierce) was immobilized onto all flow cells of a CM4 sensor chip using an amine coupling kit (GE Healthcare). Antibodies and analytes were prepared in 7(+) buffer (20 mM ACES, 150 mM NaCl, 1.2 mM CaCl2, 0.05% Tween 20, 0.005% NaN3, pH 7.4), 5(+) buffer (20 mM ACES, 150 mM NaCl, 1.2 mM CaCl2, 0.05% Tween 20, 0.005% NaN3, pH 5.8), or 5(−) buffer (20 mM ACES, 150 mM NaCl, 3 micro M CaCl2, 0.05% Tween 20, 0.005% NaN3, pH 5.8). Each antibody was captured onto the sensor surface by protein A/G. Antibody capture levels were aimed at 200 resonance unit (RU). Serum-derived human C1s (CompTech) or recombinant C1s prepared in EXAMPLE 1 was injected at 50 nM, followed by dissociation. The sensor surface was regenerated in each cycle with 10 mM Glycine-HCl, pH 1.5. […] The ratio of KD 5.8+ to KD 7.4+(“KD 5+/7+”) and that of KD 5.8− to KD 7.4+(“KD 5−/7+”) were calculated. […] Antibodies with combinations of histidine mutations were evaluated using Biacore by the method described above.

human C1s [3] = molecular target: T1, human C1s; experiment: SPR; KD at pH 5.8 (1.2 mM Ca) over KD at pH 7.4 (1.2 mM Ca)
Protocol: as §1

human C1s [4] = molecular target: T1, human C1s; experiment: SPR (Biacore T200, 37C), Ab captured on protein A/G; pH 5.8, 1.2 mM Ca
Protocol: as §1

human C1s [5] = molecular target: T1, human C1s; experiment: SPR (Biacore T200, 37C), Ab captured on protein A/G; pH 7.4, 1.2 mM Ca
Protocol: as §1

human C1s [6] = molecular target: T1, human C1s; experiment: SPR (Biacore T200, 37C), Ab captured on protein A/G; pH 5.8, 1.2 mM Ca; pH 5.8, 1.2 mM Ca
human C1s [7] = molecular target: T1, human C1s; experiment: SPR; KD at pH 5.8 (3 uM Ca) over KD at pH 7.4 (1.2 mM Ca)
Protocol: as §1

human C1s [8] = molecular target: T1, human C1s; experiment: SPR (Biacore T200, 37C), Ab captured on protein A/G, serum C1s 50 and 200 nM; pH 5.8, 1.2 mM Ca
Protocol: (§2) The binding affinity of all histidine-substituted variants at pH 7.4 and pH 5.8 were determined at 37 degrees C. using Biacore T200 instrument (GE Healthcare). Recombinant Protein A/G (Pierce) was immobilized onto all flow cells of a CM4 sensor chip using amine coupling kit (GE Healthcare). Antibodies and analytes were prepared in 7(+) buffer (20 mM ACES, 150 mM NaCl, 1.2 mM CaCl2, 0.05% Tween 20, 0.005% NaN3, pH 7.4) or 5(+) buffer (20 mM ACES, 150 mM NaCl, 1.2 mM CaCl2), 0.05% Tween 20, 0.005% NaN3, pH 5.8). Each antibody was captured onto the sensor surface by protein A/G. Antibody capture levels were aimed at 200 resonance unit (RU). […] Sensor surface was regenerated each cycle with 10 mM Glycine-HCl pH 1.5. […] An additional dissociation phase at pH 5.8 was integrated immediately after the dissociation phase at pH 7.4. This dissociation rate in 5(+) buffer was determined by processing and fitting data using Scrubber 2.0 (BioLogic Software) curve fitting software.

human C1s [9] = molecular target: T1, human C1s; experiment: SPR; KD at pH 5.8 over KD at pH 7.4, both 1.2 mM Ca
human C1s [10] = molecular target: T1, human C1s; experiment: SPR (Biacore T200, 37C), Ab captured on protein A/G, serum C1s 12.5 and 50 nM; pH 7.4, 1.2 mM Ca
human C1s [11] = molecular target: T1, human C1s; experiment: SPR; koff (5.8+ of 775+): extra dissociation phase at pH 5.8 (1.2 mM Ca) right after the pH 7.4 dissociation, Scrubber fit
human C1s [12] = molecular target: T1, human C1s; experiment: SPR (Biacore T200, 37C), Ab captured on protein A/G, serum C1s 200 and 800 nM; pH 5.8, 1.2 mM Ca; value marked 'Not Adopted due to low binding response at pH 5.8'
Protocol: as §2

B1: C1_IPN92H0288-SG4GK/IPN93L0211-SK1 (antibody, human IgG4 S228P, kappa)
heavy: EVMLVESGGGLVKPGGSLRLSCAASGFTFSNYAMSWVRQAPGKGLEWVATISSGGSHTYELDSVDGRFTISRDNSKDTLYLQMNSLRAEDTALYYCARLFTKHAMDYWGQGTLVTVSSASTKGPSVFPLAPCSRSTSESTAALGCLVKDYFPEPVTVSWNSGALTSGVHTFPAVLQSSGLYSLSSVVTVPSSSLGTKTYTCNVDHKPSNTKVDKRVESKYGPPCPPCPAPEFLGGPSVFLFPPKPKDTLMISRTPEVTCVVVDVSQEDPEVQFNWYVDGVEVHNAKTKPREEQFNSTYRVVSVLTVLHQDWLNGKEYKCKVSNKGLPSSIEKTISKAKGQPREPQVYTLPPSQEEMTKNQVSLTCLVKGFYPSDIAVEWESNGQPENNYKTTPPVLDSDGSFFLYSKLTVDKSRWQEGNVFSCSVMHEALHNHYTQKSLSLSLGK
light: QIVLTQSPATLSLSPGERATLSCTASSEVSESYLHWYQQKPGKAPKLWIYSTSNLASGVPSRFSGSGSGTDYTLTISSLQPEDFATYYCHQYYRLHPITFGQGTKLEIKRTVAAPSVFIFPPSDEQLKSGTASVVCLLNNFYPREAKVQWKVDNALQSGNSQESVTEQDSKDSTYSLSSTLTLSKADYEKHKVYACEVTHQGLSSPVTKSFNRGEC
notes: also called IPN92H0288/IPN93L0211
Human C1s [1]
  koff: 0.00504 s⁻¹
  kon: 485000 M⁻¹ s⁻¹
Human C1s [2]
  koff: 0.00088 s⁻¹
Human C1s [3]
  KD 5(+)/7(+): 9.9
Human C1s [4]
  koff: 0.0292 s⁻¹
Human C1s [5]
  kon: 527000 M⁻¹ s⁻¹
Human C1s [6]
  kon: 1.77e+06 M⁻¹ s⁻¹
Human C1s [7]
  KD 5(-)/7(+): 6.23

B2: IPN009VH2/IPN93L0023-SG136 (antibody, human IgG1, kappa, name in Kabat numbering)
heavy: EVMLVESGGGLVKPGGSLRLSCAASGFTFSNYAMSWVRQAPGKGLEWVATISSGGSHTYYLDSVKGRFTISRDNSKDTLYLQMNSLRAEDTALYYCARLFTGYAMDYWGQGTLVTVSSASTKGPSVFPLAPSSKSTSGGTAALGCLVKDYFPEPVTVSWNSGALTSGVHTFPAVLQSSGLYSLSSVVTVPSSSLGTQTYICNVNHKPSNTKVDKKVEPKSCDKTHTCPPCPAPELRRGPSVFLFPPKPKDTLMISRTPEVTCVVVDVSHEDPEVKFNWYVDGVEVHNAKTKPREEQYNSTYRVVSVLTVLHQDWLNGKEYKCKVSNKGLPSSIEKTISKAKGQPREPQVYTLPPSREEMTKNQVSLTCLVKGFYPSDIAVEWESNGQPENNYKTTPPVLDSDGSFFLYSKLTVDKSRWQQGNVFSCSVMHEALHNHYTQKSLSLSP
light: QIVLTQSPATLSLSPGERATLSCTASSSVSSSYLHWYQQKPGKAPKLWIYSTSNLASGVPSRFSGSGSGTDYTLTISSLQPEDFATYYCHQYYRHPPITFGQGTKLEIKRTVAAPSVFIFPPSDEQLKSGTASVVCLLNNFYPREAKVQWKVDNALQSGNSQESVTEQDSKDCTYSLSSTLTLSKADYEKHKVYACEVTHQGLSSPVTKSFNRGEC
notes: also called IPN009VH2/IPN93L0023 (lot PPU2043)
Human C1s [8]
  Kd: 2.48 nM
Human C1s [9]
  KD (5.8+)/KD (7.4+): 0.9
Human C1s [10]
  Kd: 2.77 nM
  koff: 0.000628 s⁻¹
Human C1s [11]
  koff: 0.000691 s⁻¹

B3: IPN92H0038/IPN93L0024-SG136 (antibody, human IgG1, kappa, name in Kabat numbering)
heavy: EVMLVESGGGLVKPGGSLRLSCAASGFTFSNYAMSWVRQAPGKGLEWVATISSGGSHTYYLDSVKHRFTISRDNSKDTLYLQMNSLRAEDTALYYCARLFTGHAMDYWGQGTLVTVSSASTKGPSVFPLAPSSKSTSGGTAALGCLVKDYFPEPVTVSWNSGALTSGVHTFPAVLQSSGLYSLSSVVTVPSSSLGTQTYICNVNHKPSNTKVDKKVEPKSCDKTHTCPPCPAPELRRGPSVFLFPPKPKDTLMISRTPEVTCVVVDVSHEDPEVKFNWYVDGVEVHNAKTKPREEQYNSTYRVVSVLTVLHQDWLNGKEYKCKVSNKGLPSSIEKTISKAKGQPREPQVYTLPPSREEMTKNQVSLTCLVKGFYPSDIAVEWESNGQPENNYKTTPPVLDSDGSFFLYSKLTVDKSRWQQGNVFSCSVMHEALHNHYTQKSLSLSP
light: QIVLTQSPATLSLSPGERATLSCTASSSVSSSYLHWYQQKPGKAPKLWIYSTSNLASGVPSRFSGSGSGTDYTLTISSLQPEDFATYYCHQYYRLHPITFGQGTKLEIKRTVAAPSVFIFPPSDEQLKSGTASVVCLLNNFYPREAKVQWKVDNALQSGNSQESVTEQDSKDCTYSLSSTLTLSKADYEKHKVYACEVTHQGLSSPVTKSFNRGEC
notes: also called IPN92H0038/IPN93L0024 (lot PPU2045)
Human C1s [8]
  Kd: 10.7 nM
Human C1s [9]
  KD (5.8+)/KD (7.4+): 8.9
Human C1s [10]
  Kd: 1.2 nM
  koff: 0.000461 s⁻¹
Human C1s [11]
  koff: 0.00354 s⁻¹

B4: IPN92H0286/IPN93L0205-SG136 (antibody, human IgG1, kappa, name in Kabat numbering)
heavy: EVMLVESGGGLVKPGGSLRLSCAASGFTFSNKAMSWVRQAPGKGLEWVATISSGGSHTYYLDSVKHRFTISRDNSKDTLYLQMNSLRAEDTALYYCARLFTGHAMDYWGQGTLVTVSSASTKGPSVFPLAPSSKSTSGGTAALGCLVKDYFPEPVTVSWNSGALTSGVHTFPAVLQSSGLYSLSSVVTVPSSSLGTQTYICNVNHKPSNTKVDKKVEPKSCDKTHTCPPCPAPELRRGPSVFLFPPKPKDTLMISRTPEVTCVVVDVSHEDPEVKFNWYVDGVEVHNAKTKPREEQYNSTYRVVSVLTVLHQDWLNGKEYKCKVSNKGLPSSIEKTISKAKGQPREPQVYTLPPSREEMTKNQVSLTCLVKGFYPSDIAVEWESNGQPENNYKTTPPVLDSDGSFFLYSKLTVDKSRWQQGNVFSCSVMHEALHNHYTQKSLSLSP
light: QIVLTQSPATLSLSPGERATLSCTASSSVSSSRLHWYQQKPGKAPKLWIYSTSNLASGVPSRFSGSGSGTDYTLTISSLQPEDFATYYCHQYHRHPPITFGQGTKLEIKRTVAAPSVFIFPPSDEQLKSGTASVVCLLNNFYPREAKVQWKVDNALQSGNSQESVTEQDSKDCTYSLSSTLTLSKADYEKHKVYACEVTHQGLSSPVTKSFNRGEC
notes: also called IPN92H0286/IPN93L0205 (lot PPU2048); IPN92H0286/IPN93L205-SG136
Human C1s [10]
  Kd: 1.43 nM
  koff: 0.000822 s⁻¹
Human C1s [11]
  koff: 0.0134 s⁻¹
Human C1s [12]
  Kd: 8530 nM
  koff: 0.0237 s⁻¹
